Assay results: patent US7919233B2, “Motif of the beclin protein which interacts with anti-apoptotic members of the Bcl-2 protein family, and uses” (Les Laboratoires Servier, priority 2005, dated 2011)

Assays:
Type in all cases: binding
Details in all cases: relative to the Beclin peptide according to the invention
Bcl-W = biological target: T1, Bcl-W (Homo sapiens, UniProt Q92843); assay: Ki by fluorescence polarisation: competition with the Bak BH3 carboxyfluorescein peptide for Bcl-W
T1 sequence (Q92843 1-193): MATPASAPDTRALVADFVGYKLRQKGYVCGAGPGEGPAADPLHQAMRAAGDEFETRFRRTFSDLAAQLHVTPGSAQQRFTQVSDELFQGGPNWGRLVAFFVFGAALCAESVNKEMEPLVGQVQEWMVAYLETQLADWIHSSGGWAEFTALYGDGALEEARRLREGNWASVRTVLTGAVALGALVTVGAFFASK
Procedure: (§1) The determination of Ki using fluorescence polarisation consists of measuring the competitive effect of the Beclin peptide on the interaction between the pro-apoptotic Bak peptide and anti-apoptotic members of the Bcl-2 protein family such as Bcl-XL, Bcl-2 or Bcl-W.
(§2) The following reagents are mixed together in the order stated: • a) competitor peptide at a final concentration of from 1 nM to 100 μM; • b) fluorescent peptide ligand (Bak BH3 carboxyfluorescein) at a final concentration of 15 nM; • c) anti-apoptotic member of the Bcl-2 protein family at a final concentration of 100 nM for Bcl-XL and of 1 μM for Bcl-2 and Bcl-W.
(§3) These reagents are dissolved in the interaction buffer (Na2HPO4 20 mM pH 7.4, EDTA 1 mM, NaCl 50 mM and pluronic acid F-68 0.05%).
(§4) The mixture is then incubated for 30 minutes at ambient temperature and the fluorescence polarisation is determined on a Fusion apparatus (Packard) (excitation at 485 nm and reading at 530 nm). The values are given in mP (unit of fluorescence polarisation).
(§5) The protocol for the determination of Ki using fluorescence polarisation is the same as the protocol described above.

Bcl-2 = Bcl-2 (Homo sapiens, UniProt P10415); assay: Ki by fluorescence polarisation: competition with the Bak BH3 carboxyfluorescein peptide for Bcl-2
Sequence of Bcl-2 (P10415 whole entry): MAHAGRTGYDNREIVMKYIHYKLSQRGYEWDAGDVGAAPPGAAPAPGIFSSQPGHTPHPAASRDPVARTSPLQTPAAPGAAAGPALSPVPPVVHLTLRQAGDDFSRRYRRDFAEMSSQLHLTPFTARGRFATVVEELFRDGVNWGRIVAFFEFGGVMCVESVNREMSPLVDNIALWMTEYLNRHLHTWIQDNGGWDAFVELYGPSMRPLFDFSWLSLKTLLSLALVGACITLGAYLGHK
Procedure: as §1, §2, §3, §4, §5

Bcl-XL = Bcl-XL (Homo sapiens, UniProt Q07817); assay: Ki by fluorescence polarisation: competition with the Bak BH3 carboxyfluorescein peptide for Bcl-XL
Sequence of Bcl-XL (Q07817 whole entry): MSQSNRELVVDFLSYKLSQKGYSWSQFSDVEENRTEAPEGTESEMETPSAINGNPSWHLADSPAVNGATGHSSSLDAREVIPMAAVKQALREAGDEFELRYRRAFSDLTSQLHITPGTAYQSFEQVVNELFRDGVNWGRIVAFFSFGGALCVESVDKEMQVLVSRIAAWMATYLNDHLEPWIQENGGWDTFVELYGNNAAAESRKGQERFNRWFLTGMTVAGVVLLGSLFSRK
Procedure: as §1, §2, §3, §4, §5

- competitive effect on the interaction between Bak peptide and Bcl-W (Bcl-W): loss of competitive effect
- competitive effect on the interaction between Bak peptide and Bcl-2 (Bcl-2): loss of competitive effect
- competitive effect on the interaction between Bak peptide and Bcl-XL (Bcl-XL): loss of competitive effect
Sequence: GTMENLSRRAKVTGDLFDIMSGQTDV (Mutated Beclin Peptide) [mutant Beclin protein (L116A)]
